Measurements published in publication PMC5966361, “Ligand binding and conformational changes of SUR1 subunit in pancreatic ATP-sensitive potassium channels” (Protein & Cell, 2018).
One block for each molecule: values may come before it.

What was measured:
[1] = biological target: SUR1-Kir6.2 fusion construct with a 39-residue linker (Mesocricetus auratus | Mus musculus); experiment: SEC; screening of fusion constructs: cleared lysate of transfected FreeStyle 293-F cells solubilised in 20 mmol/L HEPES pH 8.0, 120 mmol/L KCl, 1% digitonin, loaded onto a Superose 6 increase column
[2] = biological target: the molecule itself; experiment: cryo-EM structure; Mg-ADP state: purified fusion channel in 20 mmol/L HEPES pH 8.0, 120 mmol/L KCl, 0.1% digitonin, with 2.5 mmol/L MgCl2, 1 mmol/L ADP, 400 μmol/L 08:0 PI(4,5)P2, 500 μmol/L NN414 and 1 mmol/L Na3VO4; C4 symmetry

stoichiometry N [1]: 4
Molecule: SUR1-Kir6.2 fusion construct with a 39-residue linker (complex)

B1: Kir6.2 (inward-rectifying potassium channel 6.2) subunit, as part of the SUR1-Kir6.2 fusion construct (natural protein, Mus musculus)
chain: MLSRKGIIPEEYVLTRLAEDPAEPRYRTRERRARFVSKKGNCNVAHKNIREQGRFLQDVFTTLVDLKWPHTLLIFTMSFLCSWLLFAMVWWLIAFAHGDLAPGEGTNVPCVTSIHSFSSAFLFSIEVQVTIGFGGRMVTEECPLAILILIVQNIVGLMINAIMLGCIFMKTAQAHRRAETLIFSKHAVITLRHGRLCFMLRVGDLRKSMIISATIHMQVVRKTTSPEGEVVPLHQVDIPMENGVGGNGIFLVAPLIIYHVIDSNSPLYDLAPSDLHHHQDLEIIVILEGVVETTGITTQARTSYLADEILWGQRFVPIVAEEDGRYSVDYSKFGNTIKVPTPLCTARQLDEDRSLLDALTLASSRGPLRKRSVAVAKAKPKFSISPDSLS
notes: Kir6.2 from Mus musculus (Woo et al., 2013); In the assay it stood as the C-terminal part of the fusion chain of m1; its N-terminus is joined through the 39-residue linker to the C-terminus of SUR1, so it has no free native N-terminus; The linker and the Kir6.2 N-terminus are disordered in the maps; also called mmKir6.2; source: FreeStyle 293-F cells, BacMam system, purified as part of the fusion …
stoichiometry N [2]: 4
